The text below walks through data of patent publication US20130195859.

In this data set the test system is plasma derived alpha-1 antitrypsin (AAT).

For recombinant active caspase-1, the “caspase-1 activity (in arbitrary units), colorimetric substrate, in vitro with recombinant active caspase-1” value was “AAT has a direct inhibitory effect on caspase-1 activity in vitro”.
